A word on the Km: it is the concentration of substrate that gives half-maximal velocity. The kcat is the maximal rate divided by the concentration of active sites. As usually defined, the kcat/Km is the turnover number divided by the Michaelis constant.

Substrate in data set [1]: O=P(O)(O)OCc1ccccc1
The data set can be described thus: PK-LDH coupled assay, NADH A340. The format is biochemical, Methanohalophilus mahii. As to conditions: ATP 1 mM (2 mM in methods), 25 mM Tris pH 7.8, 5 mM MgCl2, 37 °C.

Substrate in data set [2]: Nc1ncnc2c1ncn2[C@@H]1O[C@H](COP(=O)(O)OP(=O)(O)OP(=O)(O)O)[C@@H](O)[C@H]1O
In words: PK-LDH coupled assay, NADH A340. The format is biochemical, Methanohalophilus mahii. As to conditions: isopentenyl phosphate (1) 1 mM, 25 mM Tris pH 7.8, 5 mM MgCl2, 37 °C.

Substrate in data set [3]: C=C(C)CCOP(=O)(O)O
The data set can be described thus: PK-LDH coupled assay, NADH A340. In kind it is biochemical, Methanohalophilus mahii. The note with it: ATP 1 mM (2 mM in methods), 25 mM Tris pH 7.8, 5 mM MgCl2, 37 °C.

Substrate in data set [4]: CC(C)=CCOP(=O)(O)O
The data set can be described thus: purified protein. As to conditions: ATP 1 mM (2 mM in methods), 25 mM Tris pH 7.8, 5 mM MgCl2, 37 °C.

Substrate in data set [5]: O=P(O)(O)OCc1ccccc1
The data set can be described thus: PK-LDH coupled assay, NADH A340. The format is biochemical, Thermococcus paralvinellae. The note with it: ATP 1 mM (2 mM in methods), 25 mM Tris pH 7.8, 5 mM MgCl2, 37 °C.

Substrate in data set [6]: Nc1ncnc2c1ncn2[C@@H]1O[C@H](COP(=O)(O)OP(=O)(O)OP(=O)(O)O)[C@@H](O)[C@H]1O
The data set can be described thus: PK-LDH coupled assay, NADH A340. In kind it is biochemical, Thermococcus paralvinellae. As to conditions: isopentenyl phosphate (1) 1 mM, 25 mM Tris pH 7.8, 5 mM MgCl2, 37 °C.

Substrate in data set [7]: C=C(C)CCOP(=O)(O)O
In words: PK-LDH coupled assay, NADH A340. The note with it: ATP 1 mM (2 mM in methods), 25 mM Tris pH 7.8, 5 mM MgCl2, 37 °C. The format is biochemical, Thermococcus paralvinellae.

Substrate in data set [8]: O=P(O)(O)OCc1ccccc1
The data set can be described thus: PK-LDH coupled assay, NADH A340. In kind it is biochemical, Candidatus Nitrososphaera gargensis. The note with it: ATP 1 mM (2 mM in methods), 25 mM Tris pH 7.8, 5 mM MgCl2, 37 °C. From the text: (§1) PK-LDH coupled assay, NADH A340 on CNG

Substrate in data set [9]: Nc1ncnc2c1ncn2[C@@H]1O[C@H](COP(=O)(O)OP(=O)(O)OP(=O)(O)O)[C@@H](O)[C@H]1O
In words: PK-LDH coupled assay, NADH A340. The note with it: isopentenyl phosphate (1) 1 mM, 25 mM Tris pH 7.8, 5 mM MgCl2, 37 °C. In kind it is biochemical, Candidatus Nitrososphaera gargensis.
From the text: as §1

Substrate in data set [10]: C=C(C)CCOP(=O)(O)O
In words: PK-LDH coupled assay, NADH A340. As to conditions: ATP 1 mM (2 mM in methods), 25 mM Tris pH 7.8, 5 mM MgCl2, 37 °C. In kind it is biochemical, Candidatus Nitrososphaera gargensis.
From the text: as §1

Substrate in data set [11]: O=P(O)(O)OCc1ccccc1
The data set can be described thus: PK-LDH coupled assay, NADH A340. In kind it is biochemical, Methanosarcina barkeri. The note with it: ATP 1 mM (2 mM in methods), 25 mM Tris pH 7.8, 5 mM MgCl2, 37 °C.

Substrate in data set [12]: Nc1ncnc2c1ncn2[C@@H]1O[C@H](COP(=O)(O)OP(=O)(O)OP(=O)(O)O)[C@@H](O)[C@H]1O
The data set can be described thus: PK-LDH coupled assay, NADH A340. The format is biochemical, Methanosarcina barkeri. The note with it: isopentenyl phosphate (1) 1 mM, 25 mM Tris pH 7.8, 5 mM MgCl2, 37 °C.

Substrate in data set [13]: C=C(C)CCOP(=O)(O)O
In words: PK-LDH coupled assay, NADH A340. The format is biochemical, Methanosarcina barkeri. The note with it: ATP 1 mM (2 mM in methods), 25 mM Tris pH 7.8, 5 mM MgCl2, 37 °C.

B1: MHM (Methanohalophilus mahii DSM 5219) (protein)
chain: MNEKNSDITILKIGGSVITDKSSNEGIVREKAIIRIAREISFFEGPLIIVHGAGSFGHPQAKRYSLAYKFSAEGSGVTHRSVASLNELFVNALAQRNVNAVGIHPMGCLVAKEGRISKSFLLAIQMMLEKGITPVLHGDVVMDTVKGSSVISGDQIVPYLASKLNAYRIGVGSAEDGVLDEHGHPIPLITPDNFEIASMHIGGSENTDVTGGMLGKVKEMLDMSRQTKVPSYIFNANAGGNVMSFLRGEMIGTAIKDKA
notes: N-His6 fusion, pET28a NdeI/EcoRI, codon-optimised synthetic gene, E. coli Rosetta2, Ni-NTA
For B1, the Michaelis-Menten constant (Km) came out at 70 ± 10 µM in data set [1], 100 ± 30 µM in data set [2], 50 ± 10 µM in data set [3] and 36 ± 4 µM in [4]. In addition, the kcat in data set [1] worked out at 0.139 ± 0.008 s⁻¹; in data set [2], 6.3 ± 0.3 s⁻¹; in data set [3], 5.2 ± 0.4 s⁻¹; in data set [4], 4.1 s⁻¹. Moreover, the kcat/Km in data set [1] came out at 1900 M⁻¹ s⁻¹; in data set [2], 63000 M⁻¹ s⁻¹; in data set [3], 100000 M⁻¹ s⁻¹; in [4] it was 120000 M⁻¹ s⁻¹.

B2: TCP (Thermococcus paralvinellae) (protein)
chain: MIIIKLGGSVISDKEKEYSFHRHIVEQIAEEIAQFYPDESFILVHGGGSFGHPNAREYKITEGLVGDVDRKRIGFSKTHQAMLKLNDLIIQTFLEKGLPAYSVSSSSIFLLENKEVVYGELEILRKLLELKFIPVLFGDTAIALDKGIDILSGDQIVSYLAKMLKPSKVIFLMDVDGIYDRNPKERDAKLIEELNVEEIRHLLESSESAGIDVTGGIGNKLREALKIAKHSEVYFINGKVKENLGKAIRGEKVGTRLRKLEHPKIS
notes: as for B1
Turning to B2, the Km in data set [4] amounted to 70 ± 10 µM; in data set [5], 69 ± 10 µM; in data set [6], 15 ± 3 µM; in data set [7], 22 ± 6 µM. Also, the kcat in data set [4] stood at 24 s⁻¹; in [5] it was 0.039 ± 0.002 s⁻¹; in data set [6] it was 0.59 ± 0.03 s⁻¹; in [7] it was 0.62 ± 0.03 s⁻¹. For the same protein, the kcat/Km in data set [4] is 360000 M⁻¹ s⁻¹; in data set [5], 560 M⁻¹ s⁻¹; in data set [6] it was 39000 M⁻¹ s⁻¹; in [7], 28000 M⁻¹ s⁻¹.

B3: CNG (Candidatus Nitrososphaera gargensis Ga9.2) (protein)
chain: MQKLALIKLGGSVVTFKDKPLAANTGAIDGISRVLAQLSTPAIIVHGGGSFGHYWSVKYDMHTKPAGYDPHGVSVVHESMIALNQIIINSMIRAGLNPYGMPPSVFAAGHKPVAAKIKQIYTMAKSEVMPVTFGDVVHMEGNKYSILSGDALMTMLAKVLRPSRVVFATNVDGIYKDMASRELMREIRVTTGRKKRSIEFSKASGADVTGGMQRKVAEAFKIASRGMDVLMVNGLMPERIAEAVVEGTRLQVGTVVKGSRR
notes: as for B1
Take B3: the Michaelis-Menten constant (Km) in [4] came to 390 ± 90 µM; in data set [8] it was 1200 ± 200 µM; in data set [9] it was 21 ± 5 µM; in data set [10], 61 ± 9 µM. In addition, the kcat was 0.87 s⁻¹ in data set [4], 0.83 ± 0.07 s⁻¹ in [8], 0.81 ± 0.06 s⁻¹ in [9] and 1.12 ± 0.05 s⁻¹ in data set [10]. In addition, the catalytic efficiency (kcat/Km) was determined as 2200 M⁻¹ s⁻¹ in data set [4], 700 M⁻¹ s⁻¹ in data set [8], 39000 M⁻¹ s⁻¹ in [9] and 18000 M⁻¹ s⁻¹ in data set [10].

B4: MSB (Methanosarcina barkeri 3) (protein)
chain: MNVSTEPVILKLGGSVITDKAADQGVVREDSLRRIAKEVSEYRGKMIIVHGAGSFGHTYAKKYQLGKVFDPEGAIVTHESVKKLASRVVDTLNEYGVRAIAVHPMCCTICRNGRIESMYLDNIKLMLENGLVPVLHGDVVMDLELRACVLSGDQIVPYLAKELKITRLGLGSAEDGVLDNDGKTVPEITPKTFEDFKHYIRGSGSTDVTGGMLGKVQELLELSKTSCITSYIFNAGKDDNIYRFLNGEPMGTTISPDKRV
notes: as for B1
In the case of B4, the Km was 45 ± 8 µM in data set [11], 90 ± 10 µM in data set [12], 27 ± 5 µM in data set [13] and 32 ± 7 µM in data set [4]. Besides, the kcat was 1.23 ± 0.07 s⁻¹ in [11], 9.1 ± 0.4 s⁻¹ in data set [12], 10.3 ± 0.4 s⁻¹ in [13] and 10.1 s⁻¹ in data set [4]. Besides, the kcat/Km in [11] was 27000 M⁻¹ s⁻¹; in data set [12], 100000 M⁻¹ s⁻¹; in data set [13] it was 380000 M⁻¹ s⁻¹; in data set [4], 310000 M⁻¹ s⁻¹.

Values taken from PMC8500459, “Novel Homologs of Isopentenyl Phosphate Kinase Reveal Class‐Wide Substrate Flexibility” (Chemcatchem, 2021).
